Source: US20140363428A1 (Chugai, published 2014)
Residue numbers refer to the chain shown, from its start. Each block holds one binder with its values, some of them ahead of it.

How the values were obtained:
[1] = biological target: T1, soluble human FcRn (human, UniProt P55899 24-297; P61769 21-119); experiment: SPR (Biacore T100), antibody captured by protein L, hFcRn as analyte, pH 7.0, 25 C;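 also: KD calculated from fitted association and dissociation rate constants of the sensorgrams, protein L amine-coupled to the sensor chip, sodium phosphate running buffer with NaCl and Tween20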
T1 construct: Heterodimer of FcRn alpha chain and beta2-microglobulin; also called hFcRn
Procedure: An appropriate amount of protein L (ACTIGEN) was immobilized onto Sensor chip CM4 (GE Healthcare) by the amino coupling method, and the chip was allowed to capture an antibody of interest. Then, diluted FcRn solutions and running buffer (as a reference solution) were injected to allow human FcRn to interact with the antibody captured on the sensor chip. The running buffer used comprised 50 mmol/l sodium phosphate, 150 mmol/l NaCl, and 0.05% (w/v) Tween20 (pH 7.0). FcRn was diluted using each buffer. The chip was regenerated using 10 mmol/l glycine-HCl (pH 1.5). Assays were carried out exclusively at 25 degrees C. The association rate constant ka (1/Ms) and dissociation rate constant kd (1/s), both of which are kinetic parameters, were calculated based on the sensorgrams obtained in the assays, and KD (M) of each antibody for human FcRn was determined from these values. Each parameter was calculated using Biacore T100 Evaluation Software (GE Healthcare).

[2] = biological target: T2, soluble human FcRn (heterodimer of FcRn alpha chain and beta2-microglobulin) (human, UniProt P55899 24-297; P61769 21-119); experiment: SPR Biacore T100, antibody captured via protein L, hFcRn analyte, pH 7.0, 25 C;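 also: KD derived from kinetic ka and kd fits of sensorgrams, CM4 sensor chip, sodium phosphate NaCl Tween20 running buffer, buffer-only injection used as reference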
T2 construct: Expressed in HEK293H and purified on IgG Sepharose; also called hFcRn

B2: IgG1-F1125 (antibody)
heavy: QVQLQESGPGLVKPSETLSLTCAVSGHSISHDHAWSWVRQPPGEGLEWIGFISYSGITNYNPSLQGRVTISRDNSKNTLYLQMNSLRAEDTAVYYCARSLARTTAMDYWGEGTLVTVSSASTKGPSVFPLAPSSKSTSGGTAALGCLVKDYFPEPVTVSWNSGALTSGVHTFPAVLQSSGLYSLSSVVTVPSSSLGTQTYICNVNHKPSNTKVDKKVEPKSCDKTHTCPPCPAPELLGGPSVFLFPPKPKDTLYISRTPEVTCVVVDVSHEDPEVKFNWYVDGVEVHNAKTKPREEQYNSTYRVVSVLQVLHQDWLNGKEYKCKVSNKALPAPIEKTISKAKGQPREPQVYTLPPSRDELTKNQVSLTCLVKGFYPSDIAVEWESNGQPENNYKTTPPVLDSDGSFFLYSKLTVDKSRWQQGNVFSCSVMHEALHYHVTQKSLSLSP
light: not shown
notes: VH3-IgG1 with Fc substitutions (EU numbering) + L(WT)-CK
Kd [2]: 52 nM

B4: IgG1-F1066 (antibody)
heavy: B2 heavy with Q309T, V424S
light: not shown
notes: as for B2
Kd [2]: 140 nM

B8: IgG1-F1067 (antibody)
heavy: B2 heavy with Q309T, S426E
light: not shown
notes: as for B2
Kd [2]: 130 nM

B10: IgG1-F1063 (antibody)
heavy: B2 heavy with Q309T, P389S
light: not shown
notes: as for B2
Kd [2]: 140 nM

B12: IgG1-F1308 (antibody)
heavy: B2 heavy with L237R, S241K, Q309T, V424L, S426L
light: not shown
notes: EU numbering; copies: 2 + 2
Kd [1]: 210 nM

B13: IgG1-F1058 (antibody)
heavy: B2 heavy with Q309T, Q388E
light: not shown
notes: as for B2
Kd [2]: 130 nM

B20: IgG1-F1319 (antibody)
heavy: B2 heavy with Q309T, L330Y, V438Y
light: not shown
notes: EU numbering; copies: 2 + 2
Kd [1]: 270 nM

B21: IgG1-F1064 (antibody)
heavy: B2 heavy with Q309T, V424E
light: not shown
notes: as for B2
Kd [2]: 130 nM

B22: IgG1-F1313 (antibody)
heavy: B2 heavy with L237R, S241K, Q309T, H435D, Q440A, S442A
light: not shown
notes: EU numbering; copies: 2 + 2
Kd [1]: 180 nM

B24: IgG1-F1344 (antibody)
heavy: B2 heavy with L237R, S241K, Q309T, V438T, Q440K, S442E
light: not shown
notes: EU numbering; copies: 2 + 2
Kd [1]: 400 nM

B26: IgG1-F1311 (antibody)
heavy: B2 heavy with L237R, S241K, Q309T, V424A, S426A, H435D
light: not shown
notes: EU numbering; copies: 2 + 2
Kd [1]: 170 nM

B28: IgG1-F1341 (antibody)
heavy: B2 heavy with L237R, S241K, S256T, Q309T, V438T, Q440K, S442E
light: not shown
notes: EU numbering; copies: 2 + 2
Kd [1]: 320 nM

B29: IgG1-F1343 (antibody)
heavy: B2 heavy with L237R, S241K, S256T, T258E, Q309T, V438T, Q440K, S442E
light: not shown
notes: EU numbering; copies: 2 + 2
Kd [1]: 200 nM

B30: IgG1-F1306 (antibody)
heavy: B2 heavy with L237R, S241K, Q309T, H435D, Q440K, S442E
light: not shown
notes: EU numbering; copies: 2 + 2
Kd [1]: 190 nM

B33: IgG1-F1312 (antibody)
heavy: B2 heavy with L237R, S241K, Q309T, V424L, S426L, H435D
light: not shown
notes: EU numbering; copies: 2 + 2
Kd [1]: 180 nM

B35: IgG1-F1060 (antibody)
heavy: B2 heavy with Q309T, Q388S
light: not shown
notes: as for B2
Kd [2]: 140 nM

B37: IgG1-F1352 (antibody)
heavy: B2 heavy with L237R, S241K, Q309T, H435D, V438T, Q440K, S442E
light: not shown
notes: EU numbering; copies: 2 + 2
Kd [1]: 390 nM

B39: IgG1-F1349 (antibody)
heavy: B2 heavy with L237R, S241K, Q309T, V438T, Q440R, S442E
light: not shown
notes: EU numbering; copies: 2 + 2
Kd [1]: 340 nM

B40: IgG1-F1310 (antibody)
heavy: B2 heavy with L237R, S241K, Q309T, Q440L, S442L
light: not shown
notes: EU numbering; copies: 2 + 2
Kd [1]: 230 nM

B44: IgG1-F1302 (antibody)
heavy: B2 heavy with L237R, S241K, T258E, Q309T, H435D, V438Y, Q440K, S442D
light: not shown
notes: EU numbering; copies: 2 + 2
Kd [1]: 220 nM

B47: IgG1-F1314 (antibody)
heavy: B2 heavy with L237R, S241K, Q309T, H435D, Q440L, S442L
light: not shown
notes: EU numbering; copies: 2 + 2
Kd [1]: 230 nM

B48: IgG1-F1059 (antibody)
heavy: B2 heavy with Q309T, Q388R
light: not shown
notes: as for B2
Kd [2]: 140 nM

B49: IgG1-F1325 (antibody)
heavy: B2 heavy with L236A, L237A, N299A, Q309T
light: not shown
notes: EU numbering; copies: 2 + 2
Kd [1]: 210 nM

B50: IgG1-F1061 (antibody)
heavy: B2 heavy with Q309T, P389E
light: not shown
notes: as for B2
Kd [2]: 120 nM

B51: IgG1-F1342 (antibody)
heavy: B2 heavy with L237R, S241K, T258E, Q309T, V438T, Q440K, S442E
light: not shown
notes: EU numbering; copies: 2 + 2
Kd [1]: 250 nM

B55: IgG1-F1305 (antibody)
heavy: B2 heavy with L237R, S241K, Q309T, H435D, Q440R, S442D
light: not shown
notes: EU numbering; copies: 2 + 2
Kd [1]: 200 nM

B56: IgG1-F1068 (antibody)
heavy: B2 heavy with Q309T, S426R
light: not shown
notes: as for B2
Kd [2]: 170 nM

B57: IgG1-F1339 (antibody)
heavy: B2 heavy with L237R, S241K, S256T, T258E, Q309T, H435D, V438T, Q440K, S442E
light: not shown
notes: EU numbering; copies: 2 + 2
Kd [1]: 250 nM

B58: IgG1-F1065 (antibody)
heavy: B2 heavy with Q309T, V424R
light: not shown
notes: as for B2
Kd [2]: 140 nM

Other lines, results leading:

Kd [1]: 160 nM
B1: IgG1-F1300 (antibody)
heavy: B2 heavy with L237R, S241K, T258E, Q309T, V438T, Q440K, S442D
light: not shown
notes: EU numbering; copies: 2 + 2

Kd [1]: 55 nM
B3: IgG1-F1348 (antibody)
heavy: B2 heavy with L237R, G238R, S241K, S256T, T258E, Q309T, Q440K, S442E
light: not shown
notes: EU numbering; copies: 2 + 2

Kd [1]: 120 nM
B5: IgG1-F1333 (antibody)
heavy: B2 heavy with L237R, G238R, S241K, Q309T
light: not shown
notes: EU numbering; copies: 2 + 2

Kd [1]: 77 nM
B6: IgG1-F1331 (antibody)
heavy: B2 heavy with L237R, G238R, S241K, S256T, T258E, Q309T, Q440R, S442E
light: not shown
notes: EU numbering; copies: 2 + 2

Kd [1]: 72 nM
B7: IgG1-F1336 (antibody)
heavy: B2 heavy with L237R, G238R, S241K, T258E, Q309T, Q440K, S442D
light: not shown
notes: EU numbering; copies: 2 + 2

Kd [1]: 130 nM
B9: IgG1-F1329 (antibody)
heavy: B2 heavy with L237R, G238R, S241K, S256T, Q309T, Q440R, S442E
light: not shown
notes: EU numbering; copies: 2 + 2

Kd [1]: 140 nM
B11: IgG1-F1317 (antibody)
heavy: B2 heavy with S241K, Q309T, P331K
light: not shown
notes: EU numbering; copies: 2 + 2

Kd [1]: 86 nM
B14: IgG1-F1346 (antibody)
heavy: B2 heavy with L237R, G238R, S241K, S256T, Q309T, Q440K, S442E
light: not shown
notes: EU numbering; copies: 2 + 2

Kd [1]: 100 nM
B15: IgG1-F1345 (antibody)
heavy: B2 heavy with L237R, G238R, S241K, Q309T, Q440K, S442E
light: not shown
notes: EU numbering; copies: 2 + 2

Kd [1]: 100 nM
B16: IgG1-F1321 (antibody)
heavy: B2 heavy with L237R, S241K, S256T, Q309T, Q440K, S442E
light: not shown
notes: EU numbering; copies: 2 + 2

Kd [1]: 130 nM
B17: IgG1-F1309 (antibody)
heavy: B2 heavy with L237R, S241K, Q309T, Q440A, S442A
light: not shown
notes: EU numbering; copies: 2 + 2

Kd [1]: 100 nM
B18: IgG1-F1334 (antibody)
heavy: B2 heavy with L237R, G238R, S241K, Q309T, Q440K, S442D
light: not shown
notes: EU numbering; copies: 2 + 2

Kd [1]: 130 nM
B19: IgG1-F1324 (antibody)
heavy: B2 heavy with L236A, L237A, Q309T
light: not shown
notes: EU numbering; copies: 2 + 2

Kd [1]: 56 nM
B23: IgG1-F1340 (antibody)
heavy: B2 heavy with L237R, S241K, S256T, T258E, Q309T, Q440K, S442E
light: not shown
notes: EU numbering; copies: 2 + 2

Kd [1]: 150 nM
B25: IgG1-F1316 (antibody)
heavy: B2 heavy with G239R, S241K, Q309T
light: not shown
notes: EU numbering; copies: 2 + 2

Kd [1]: 88 nM
B27: IgG1-F1335 (antibody)
heavy: B2 heavy with L237R, G238R, S241K, S256T, Q309T, Q440K, S442D
light: not shown
notes: EU numbering; copies: 2 + 2

Kd [1]: 100 nM
B31: IgG1-F1330 (antibody)
heavy: B2 heavy with L237R, G238R, S241K, T258E, Q309T, Q440R, S442E
light: not shown
notes: EU numbering; copies: 2 + 2

Kd [1]: 140 nM
B32: IgG1-F1307 (antibody)
heavy: B2 heavy with L237R, S241K, Q309T, V424A, S426A
light: not shown
notes: EU numbering; copies: 2 + 2

Kd [1]: 160 nM
B34: IgG1-F1351 (antibody)
heavy: B2 heavy with L237R, S241K, Q309T, V438F, Q440R, S442E
light: not shown
notes: EU numbering; copies: 2 + 2

Kd [1]: 100 nM
B36: IgG1-F1338 (antibody)
heavy: B2 heavy with L237R, S241K, T258E, Q309T, H435D, Q440K, S442E
light: not shown
notes: EU numbering; copies: 2 + 2

Kd [1]: 120 nM
B38: IgG1-F1304 (antibody)
heavy: B2 heavy with L237R, S241K, T258E, Q309T, H435D, V438F, Q440K, S442D
light: not shown
notes: EU numbering; copies: 2 + 2

Kd [1]: 140 nM
B41: IgG1-F1318 (antibody)
heavy: B2 heavy with S241K, Q309T, P331R
light: not shown
notes: EU numbering; copies: 2 + 2

Kd [1]: 71 nM
B42: IgG1-F1347 (antibody)
heavy: B2 heavy with L237R, G238R, S241K, T258E, Q309T, Q440K, S442E
light: not shown
notes: EU numbering; copies: 2 + 2

Kd [1]: 150 nM
B43: IgG1-F1323 (antibody)
heavy: B2 heavy with L237R, S241K, S256T, Q309T, H435D, Q440K, S442E
light: not shown
notes: EU numbering; copies: 2 + 2

Kd [1]: 120 nM
B45: IgG1-F1320 (antibody)
heavy: B2 heavy with L237R, S241K, S256T, Q309T, Q440R, S442D
light: not shown
notes: EU numbering; copies: 2 + 2

Kd [1]: 150 nM
B46: IgG1-F1328 (antibody)
heavy: B2 heavy with L237R, G238R, S241K, Q309T, Q440R, S442E
light: not shown
notes: EU numbering; copies: 2 + 2

Kd [1]: 120 nM
B52: IgG1-F1350 (antibody)
heavy: B2 heavy with L237R, S241K, Q309T, V438F, Q440K, S442E
light: not shown
notes: EU numbering; copies: 2 + 2

Kd [1]: 74 nM
B53: IgG1-F1337 (antibody)
heavy: B2 heavy with L237R, S241K, T258E, Q309T, Q440K, S442E
light: not shown
notes: EU numbering; copies: 2 + 2

Kd [1]: 150 nM
B54: IgG1-F1315 (antibody)
heavy: B2 heavy with G239K, S241K, Q309T
light: not shown
notes: EU numbering; copies: 2 + 2
